How the values were obtained:
Assay in all cases: cell-based or functional assay
[1] = molecular target: HIV-1 Env of clone CH106 (HIV-1)
[2] = molecular target: HIV-1 Env of strain BaL (HIV-1)
[3] = molecular target: HIV-1 Env of clone CH058 (HIV-1)
[4] = molecular target: HIV-1 Env of isolate 8106 (HIV-1)
[5] = molecular target: HIV-1 Env of isolate 8110 (HIV-1)
[6] = molecular target: HIV-1 Env of isolate 92HT593 (HIV-1)
[7] = molecular target: HIV-1 Env gp120 of virus CH058, on infected cells (HIV-1)
[8] = molecular target: HIV-1 Env of isolate 8176 (HIV-1)
[9] = molecular target: HIV-1 Env of clone RHPA (HIV-1)
[10] = molecular target: HIV-1 Env of isolate 92US712 (HIV-1)
[11] = molecular target: HIV-1 Env of isolate 8134 (HIV-1)
[12] = molecular target: HIV-1 Env of clone CH077 (HIV-1)
[13] = molecular target: HIV-1 Env of isolate 92US727 (HIV-1)
[14] = molecular target: HIV-1 Env of isolate 8320 (HIV-1)
[15] = molecular target: HIV-1 Env of isolate 8359 (HIV-1)
[16] = molecular target: HIV-1 Env gp120 of virus 92US727, on infected cells (HIV-1)
[17] = molecular target: HIV-1 Env gp120 of virus WITO, on infected cells (HIV-1)
[18] = molecular target: HIV-1 Env of isolate 8318 (HIV-1)
[19] = molecular target: HIV-1 Env of clone THRO (HIV-1)
[20] = molecular target: HIV-1 Env of isolate 8398 (HIV-1)
[21] = molecular target: HIV-1 Env of isolate 92US657 (HIV-1)
[22] = molecular target: HIV-1 Env of clone WITO (HIV-1)
[23] = molecular target: HIV-1 Env of clone REJO (HIV-1)
[24] = molecular target: HIV-1 Env of isolate 8117 (HIV-1)

PGT-121.60 (antibody)
IC50 (neutralization, CEM.NKr.CCR5.LucR based assay) [1]: > 100 µg/mL
IC50 (neutralization, CEM.NKr.CCR5.LucR based assay) [2]: 0.015 µg/mL
IC50 (neutralization, CEM.NKr.CCR5.LucR based assay) [3]: 0.063 µg/mL
IC50 (neutralization, CEM.NKr.CCR5.LucR based assay) [4]: 0.091 µg/mL
IC50 (neutralization, CEM.NKr.CCR5.LucR based assay) [5]: 0.514 µg/mL
IC50 (neutralization, CEM.NKr.CCR5.LucR based assay) [6]: 0.024 µg/mL
Maximum percent of HIV-infected cells killed; PBMC-derived effector cells; donor 1003277; virus CHO58 [7]: 66.2%
Maximum percent of HIV-infected cells killed; PBMC-derived effector cells; donor 1004344; virus CHO58 [7]: 82.8%
Maximum percent of HIV-infected cells killed; tonsil-derived effector cells; donor 1003277; virus CHO58 [7]: 10.9%
Maximum percent of HIV-infected cells killed; tonsil-derived effector cells; donor 1004344; virus CHO58 [7]: 0%
Potency (IC50) of killing HIV-infected cells; PBMC-derived effector cells; donor 1003277; virus CHO58 [7]: 0.706 µg/mL
Potency (IC50) of killing HIV-infected cells; PBMC-derived effector cells; donor 1004344; virus CHO58 [7]: 0.094 µg/mL
Potency (IC50) of killing HIV-infected cells; tonsil-derived effector cells; donor 1003277; virus CHO58 [7]: > 10 µg/mL
Potency (IC50) of killing HIV-infected cells; tonsil-derived effector cells; donor 1004344; virus CHO58 [7]: > 10 µg/mL
IC50 (neutralization, CEM.NKr.CCR5.LucR based assay) [8]: 0.028 µg/mL
IC50 (neutralization, CEM.NKr.CCR5.LucR based assay) [9]: 0.534 µg/mL
IC50 (neutralization, CEM.NKr.CCR5.LucR based assay) [10]: 0.019 µg/mL
IC50 (neutralization, CEM.NKr.CCR5.LucR based assay) [11]: 0.062 µg/mL
IC50 (neutralization, CEM.NKr.CCR5.LucR based assay) [12]: > 100 µg/mL
IC50 (neutralization, CEM.NKr.CCR5.LucR based assay) [13]: 0.013 µg/mL
IC50 (neutralization, CEM.NKr.CCR5.LucR based assay) [14]: > 100 µg/mL
IC50 (neutralization, CEM.NKr.CCR5.LucR based assay) [15]: 0.337 µg/mL
Maximum percent of HIV-infected cells killed; PBMC-derived effector cells; donor 1004344; virus 92US727 [16]: 63.7%
Maximum percent of HIV-infected cells killed; tonsil-derived effector cells; donor 1004344; virus 92US727 [16]: 0%
Potency (IC50) of killing HIV-infected cells; PBMC-derived effector cells; donor 1004344; virus 92US727 [16]: 0.014 µg/mL
Potency (IC50) of killing HIV-infected cells; tonsil-derived effector cells; donor 1004344; virus 92US727 [16]: > 10 µg/mL
killing EC50; HIV-infected CD4 T cells (WITO); effector cells Eff Memory CD4 [17]: > 10 µg/mL
killing EC50; HIV-infected CD4 T cells (WITO); effector cells Memory CD4 [17]: > 10 µg/mL
killing EC50; HIV-infected CD4 T cells (WITO); effector cells Memory CD8 [17]: > 10 µg/mL
killing EC50; HIV-infected CD4 T cells (WITO); effector cells γ Δ CD4 [17]: 0.36 µg/mL
killing EC50; HIV-infected CEM-NKr-CCR5-LucR CD4 T cells; PBMC donor 4176; virus WITO [17]: > 100 µg/mL
killing EC50; HIV-infected CEM-NKr-CCR5-LucR CD4 T cells; PBMC donor 4288; virus WITO [17]: 0.767 µg/mL
killing Emax; HIV-infected CD4 T cells (WITO); effector cells Eff Memory CD4 [17]: 0%
killing Emax; HIV-infected CD4 T cells (WITO); effector cells Memory CD4 [17]: 9%
killing Emax; HIV-infected CD4 T cells (WITO); effector cells Memory CD8 [17]: 9%
killing Emax; HIV-infected CD4 T cells (WITO); effector cells γ Δ CD4 [17]: 18%
killing Emax; HIV-infected CEM-NKr-CCR5-LucR CD4 T cells; PBMC donor 4176; virus WITO [17]: 0%
killing Emax; HIV-infected CEM-NKr-CCR5-LucR CD4 T cells; PBMC donor 4288; virus WITO [17]: 46%
IC50 (neutralization, CEM.NKr.CCR5.LucR based assay) [18]: 0.048 µg/mL
IC50 (neutralization, CEM.NKr.CCR5.LucR based assay) [19]: > 100 µg/mL
IC50 (neutralization, CEM.NKr.CCR5.LucR based assay) [20]: 0.028 µg/mL
IC50 (neutralization, CEM.NKr.CCR5.LucR based assay) [21]: 0.168 µg/mL
IC50 (neutralization, CEM.NKr.CCR5.LucR based assay) [22]: 1.05 µg/mL
IC50 (neutralization, CEM.NKr.CCR5.LucR based assay) [23]: > 100 µg/mL
IC50 (neutralization, CEM.NKr.CCR5.LucR based assay) [24]: > 100 µg/mL

Source: patent publication US20180371086A1
